According to the supplement of paper PMC10126150:
± gives the standard deviation of the averaged measurements.

test system: ATP; experiment: switch fluorescence ratio, 500 uM ATP over buffer (Cy3 cluster intensity, sum of 5 cycles each) (fold (ratio)); higher = stronger signal-on switching upon ATP binding; sequences stand for … in TCGTCGGCAGCGTCAGATGTGTATAAGAGACAGTTTTTTTTTTTTTTTTTTTTTTTTT…TC; settings: aptamer strand: ATP DNA aptamer (quencher-CACCTGGGGGAGTATTGCGGAGGAAGG + anchor), 100 nM annealed; ATP concentration: 500 uM
Summary of the method: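 Per cluster, summed Cy3 intensity from the target cycles was divided by that from the buffer cycles to give the fluorescence ratio, then averaged per switch-domain sequence. Clusters outside 100-1000 RFU were excluded. The Cy3-labelled switching-strand clusters, on a modified Illumina MiSeq flow-cell, were annealed to 100 nM quencher-labelled ATP aptamer and imaged in selection buffer, then after 15 min with 500 uM ATP at 22 °C, for five cycles with NaOH stripping and re-annealing between them.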
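Note: ATP exposure 15 min at 22 °C before imaging.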

| Sequence | switch fluorescence ratio |
| --- | --- |
| CCTGATTTGG | 0.969 ± 0.03 |
| CCTGCAAACA | 2.22 ± 0.17 |
| CCTGCAGTTT | 1.04 ± 0.019 |
| CCTGCGCACG | 3.98 ± 0.93 |
| CCTGCTTGGT | 1.029 ± 0.0082 |
| CCTGCTTTGG | 1.07 ± 0.083 |
| CCTGGCGCCA | 1.006 ± 0.0021 |
| CCTGGGACCA | 0.975 ± 0.0064 |
| CCTGGGAGCA | 1.08 ± 0.057 |
| CCTGGGAGTG | 0.999 ± 0.035 |
| CCTGGGGATA | 1.04 ± 0.024 |
| CCTGGGGCGT | 1.06 ± 0.12 |
| CCTGGGGCTA | 1.25 ± 0.021 |
| CCTGGGGCTT | 1.03 ± 0.033 |
| CCTGGGGGGC | 1.09 ± 0.18 |
| CCTGGGGGTA | 1.04 ± 0.024 |
| CCTGGGGTAA | 1.09 ± 0.039 |
| CCTGGGGTGT | 1.34 ± 0.28 |
| CCTGGTACTG | 1.05 ± 0.015 |
| CCTGTAAGCT | 1.3 ± 0.077 |
| CCTGTAATTG | 1.03 ± 0.031 |
| CCTGTACGGA | 1.004 ± 0.0067 |
| CCTGTGTGAC | 1.344 ± 0.013 |
| CCTGTTTGAG | 1.04 ± 0.11 |
| CCTTACCTTG | 1.04 ± 0.041 |

| Sequence | switch fluorescence ratio |
| --- | --- |
| CCTTATTTTG | 1.05 ± 0.065 |
| CCTTCAGAGG | 1.12 ± 0.033 |
| CCTTCCGGGG | 2.07 ± 0.23 |
| CCTTCTCGTC | 1.34 ± 0.096 |
| CCTTGATCTG | 1.06 ± 0.02 |
| CCTTGCCCTT | 1.03 ± 0.014 |
| CCTTGGAACG | 1.03 ± 0.011 |
| CCTTGGCGCG | 0.995 ± 0.035 |
| CCTTGGCTTT | 1.53 ± 0.11 |
| CCTTTAGATG | 1.03 ± 0.04 |
| CCTTTAGGGG | 0.997 ± 0.037 |
| CCTTTATGGC | 0.947 ± 0.029 |
| CCTTTATTTA | 0.986 ± 0.026 |
| CCTTTGGAAT | 1.16 ± 0.031 |
| CCTTTTGGGC | 0.97636 ± 3.3e-05 |
| CCTTTTGTTA | 0.989 ± 0.02 |
| CCTTTTTGGT | 1.016 ± 0.01 |
| CCTTTTTTGG | 1.02 ± 0.021 |
| CCTTTTTTTG | 1.01 ± 0.024 |
| CGAAAAAAAA | 0.948 ± 0.062 |
| CGAAAAAAGA | 1.05 ± 0.12 |
| CGAAAAATAG | 0.985 ± 0.043 |
| CGAAAACGGT | 0.999 ± 0.048 |
| CGAAAACGTG | 0.976 ± 0.012 |
| CGAAAGATGA | 0.982 ± 0.019 |

| Sequence | switch fluorescence ratio |
| --- | --- |
| CGAAAGTAGC | 1.01 ± 0.013 |
| CGAAATCATC | 1.063 ± 0.0053 |
| CGAAATCGTG | 0.9964 ± 0.0047 |
| CGAAATGGGT | 1.03 ± 0.025 |
| CGAACAGCGC | 1.01 ± 0.019 |
| CGAACCTTGG | 0.998 ± 0.019 |
| CGAAGACGTA | 1.05 ± 0.06 |
| CGAAGATTTG | 1 ± 0.015 |
| CGAAGCAGGA | 2.4 ± 0.097 |
| CGAAGGATCT | 1.02 ± 0.019 |
| CGAAGGCTGG | 1.0003 ± 0.00038 |
| CGAAGGGATG | 0.982 ± 0.031 |
| CGAAGGGGGG | 1.03 ± 0.087 |
| CGAAGGGTCC | 0.959 ± 0.031 |
| CGAAGGGTGA | 1.06 ± 0.02 |
| CGAAGGGTGG | 0.993 ± 0.028 |
| CGAAGGTTTA | 0.9981 ± 0.0018 |
| CGAATCAAAC | 1.52 ± 0.032 |
| CGAATCTTGT | 1.01 ± 0.016 |
| CGAATCTTTT | 1.013 ± 0.0025 |
| CGAATGGAAC | 0.989 ± 0.017 |
| CGAATGGTCG | 1.041 ± 0.0095 |
| CGAATTAATT | 0.96152 ± 0.00065 |
| CGAATTACGT | 0.992 ± 0.016 |
| CGACAGGCAT | 1.63 ± 0.063 |

| Sequence | switch fluorescence ratio |
| --- | --- |
| CGACCACTTT | 1.04 ± 0.025 |
| CGACTAAAAG | 0.999 ± 0.042 |
| CGACTACCTT | 1.21 ± 0.016 |
| CGACTAGGTA | 1 ± 0.062 |
| CGACTGATTA | 0.991 ± 0.013 |
| CGACTTTTAT | 0.9818 ± 0.0046 |
| CGACTTTTGT | 0.967 ± 0.013 |
| CGAGAAGAGA | 1.01 ± 0.013 |
| CGAGAAGGTG | 1.24 ± 0.33 |
| CGAGACAGGG | 1 ± 0.036 |
| CGAGAGGGGA | 1.03 ± 0.02 |
| CGAGATATGT | 1.002 ± 0.0038 |
| CGAGATGGGT | 0.974 ± 0.028 |
| CGAGATGTTA | 0.993 ± 0.015 |
| CGAGCCGAGA | 1.003 ± 0.0095 |
| CGAGCGTAGG | 1.01 ± 0.043 |
| CGAGCTTTAG | 1.024 ± 0.0033 |
| CGAGGAGGGC | 0.974 ± 0.019 |
| CGAGGCAGCT | 1.16 ± 0.15 |
| CGAGGCCTGT | 1.02 ± 0.022 |
| CGAGGGCAGG | 1.08 ± 0.06 |
| CGAGGGCATG | 1.07 ± 0.045 |
| CGAGGGGAAC | 2.81 ± 2.5 |
| CGAGGGGATA | 1.04 ± 0.051 |
| CGAGGGGCTG | 1.03 ± 0.013 |

| Sequence | switch fluorescence ratio |
| --- | --- |
| CGAGGGTAAG | 1 ± 0.0022 |
| CGAGTAAAGA | 1.03 ± 0.028 |
| CGAGTAACGC | 1.03 ± 0.015 |
| CGAGTACGGT | 0.979 ± 0.028 |
| CGAGTAGGGG | 1.01 ± 0.025 |
| CGAGTATGAA | 0.989 ± 0.06 |
| CGAGTCAGTT | 0.992 ± 0.029 |
| CGAGTCCAAG | 1.01 ± 0.026 |
| CGAGTTAAGC | 0.965 ± 0.02 |
| CGAGTTGGCT | 1 ± 0.032 |
| CGAGTTGTTG | 1.014 ± 0.0072 |
| CGAGTTGTTT | 1 ± 0.03 |
| CGATAAGAAG | 1.01 ± 0.017 |
| CGATAAGCGG | 1.02 ± 0.035 |
| CGATACCGTG | 1.007 ± 0.0044 |
| CGATACGATT | 1.06 ± 0.076 |
| CGATAGTATA | 1.007 ± 0.0082 |
| CGATATGTTC | 1.01 ± 0.018 |
| CGATCCGGGC | 1.05 ± 0.043 |
| CGATCCTTTT | 1.05 ± 0.029 |
| CGATCGGGAT | 1.12 ± 0.13 |
| CGATCTTACG | 0.9935 ± 0.0069 |
| CGATCTTGGA | 0.94 ± 0.065 |
| CGATGAATTC | 1.07 ± 0.048 |
| CGATGAATTG | 0.981 ± 0.023 |

| Sequence | switch fluorescence ratio |
| --- | --- |
| CGATGAGGGG | 0.967 ± 0.03 |
| CGATGAGTAA | 1 ± 0.029 |
| CGATGCAGTT | 1.05 ± 0.041 |
| CGATGCGAAG | 1.02 ± 0.035 |
| CGATGGATGG | 1.01 ± 0.037 |
| CGATGGCGGG | 1.02 ± 0.071 |
| CGATGGGGAC | 1.14 ± 0.019 |
| CGATGGGGTA | 1.01 ± 0.044 |
| CGATGGTGTT | 1.01 ± 0.035 |
| CGATGTAGGC | 1.05 ± 0.088 |
| CGATGTCGTA | 1.03 ± 0.034 |
| CGATGTCTCT | 0.973 ± 0.047 |
| CGATGTTTTT | 0.957 ± 0.029 |
| CGATTATTTC | 0.983 ± 0.0096 |
| CGATTCGCAG | 1.25 ± 0.096 |
| CGATTCTTGG | 0.99932 ± 5.1e-05 |
| CGATTGCATG | 1.05 ± 0.017 |
| CGATTGGGGG | 1.01 ± 0.018 |
| CGATTTATGT | 0.9925 ± 0.0057 |
| CGATTTCTCT | 0.973 ± 0.04 |
| CGATTTTCAT | 0.988 ± 0.013 |
| CGATTTTGGC | 0.962 ± 0.049 |
| CGATTTTGGT | 0.9633 ± 0.0038 |
| CGATTTTTTG | 1 ± 0.019 |
| CGCAAATCAA | 1.38 ± 0.073 |

| Sequence | switch fluorescence ratio |
| --- | --- |
| CGCAATTGAG | 3.38 ± 0.17 |
| CGCAATTGTT | 2.49 ± 0.55 |
| CGCACGGGTC | 1.11 ± 0.038 |
| CGCAGAGCAA | 2.538 ± 0.0049 |
| CGCAGGCACG | 1.07 ± 0.052 |
| CGCAGTCTGT | 1.12 ± 0.012 |
| CGCATCAAGT | 1.01 ± 0.031 |
| CGCATCCTTG | 1.03 ± 0.027 |
| CGCCCCAGTG | 3.02 ± 1.8 |
| CGCCCCTGGG | 1.13 ± 0.18 |
| CGCCCTTGGC | 1.07 ± 0.036 |
| CGCCGAGATT | 1.08 ± 0.058 |
| CGCCGATATA | 1.12 ± 0.063 |
| CGCCGCTGGG | 1.993 ± 0.0075 |
| CGCCGGCGGG | 0.978 ± 0.034 |
| CGCCGGGGGC | 1.03 ± 0.014 |
| CGCCGGGTGC | 2.75 ± 0.43 |
| CGCCGTGTCG | 0.927 ± 0.049 |
| CGCCTAAGGG | 0.993 ± 0.037 |
| CGCCTCAGGG | 1.14 ± 0.018 |
| CGCCTGGCCG | 0.9439 ± 0.0079 |
| CGCCTGGGAT | 1.03 ± 0.0027 |
| CGCGATGGCG | 0.98 ± 0.017 |
| CGCGATTATT | 1.09 ± 0.04 |
| CGCGCAGAT | 1.02 ± 0.025 |

| Sequence | switch fluorescence ratio |
| --- | --- |
| CGCGCTTTCA | 1.02 ± 0.027 |
| CGCGGAGGGG | 1.01 ± 0.049 |
| CGCGGAGTAG | 0.9869 ± 0.0043 |
| CGCGGGCACT | 1.04 ± 0.04 |
| CGCGGGGGGC | 1.05 ± 0.084 |
| CGCGGGGTAG | 1.038 ± 0.0072 |
| CGCGGGGTGT | 1.05 ± 0.03 |
| CGCGGTAATT | 1.05 ± 0.063 |
| CGCGGTATCT | 1.02 ± 0.033 |
| CGCGGTATTA | 1.02 ± 0.013 |
| CGCGGTTAAA | 1.18 ± 0.19 |
| CGCGTGAAGA | 1.12 ± 0.11 |
| CGCGTTCGGA | 1.04 ± 0.015 |
| CGCTAAAGGG | 1.042 ± 0.0042 |
| CGCTAATCAA | 1.09 ± 0.042 |
| CGCTACGATG | 1.082 ± 0.0078 |
| CGCTAGGTTG | 1.01 ± 0.026 |
| CGCTATGGGA | 1.02 ± 0.026 |
| CGCTATTATA | 1.09 ± 0.052 |
| CGCTATTATT | 1.05 ± 0.04 |
| CGCTCCGCCT | 2.36 ± 0.11 |
| CGCTCCGGGC | 1.23 ± 0.058 |
| CGCTCTAAAA | 1.01 ± 0.011 |
| CGCTGAGATC | 1.016 ± 0.002 |
| CGCTGGGTAC | 2.24 ± 0.28 |
